The target of this experiment is soluble CD8αα (human). The experiment is described as follows: SPR.

pKd: −log10 of the molar value.

Turning to “soluble MR1-β2m-Ac-6-FP monomer (WT) (from UniProt Q95460 23-292; P61769 21-119) (complex)”, the negative-log Kd (pKd) (usually the negative decadic logarithm of the Kd, by convention in mol/L) was 3.75.
Turning to “HLA-A*02:01-NLV monomer (WT) (from UniProt P61769 21-119) (peptide-MHC)”, the pKd was 3.64.

Source of the values: publication PMC9424912.
